For 18 molecules, peptide exchange yield results are on record in patent US20230241113A1 (IMMATICS BIOTECHNOLOGIES, published 2023).

First the molecules themselves.
B1: HERVK-002 (peptide)
peptide: STTIINLIL
notes: From a human endogenous retrovirus; also called STTIINLIL
B2: HERVK-003 (peptide)
peptide: TLLSYSIPL
notes: From a human endogenous retrovirus; also called TLLSYSIPL

For the experiment, the target named is T1, HLA-A*02:01 (human).
T1 construct: captured on streptavidin plates, detected with anti-β2m; also called peptide-receptive MHC molecules; MHC class I
Kind of experiment: UV-ligand exchange + anti-β2m ELISA; exchange yield grade: ≥10% +, ≥20% ++, ≥50 +++, ≥75% ++++. The method, then:
The individual peptide-MHC complexes were produced by UV-ligand exchange, where a UV-sensitive peptide is cleaved upon UV-irradiation and exchanged with the peptide of interest as analyzed. Only peptide candidates that can effectively bind and stabilize the peptide-receptive MHC molecules prevent dissociation of the MHC complexes. To determine the yield of the exchange reaction, an ELISA was performed based on the detection of the light chain (β2m) of stabilized MHC complexes. The assay was performed as generally described in Rodenko et al. (Rodenko et al., 2006).
96 well MAXISorp plates (NUNC) were coated over night with 2 μg/ml streptavidin in PBS at room temperature, washed 4× and blocked for 1 h at 37° C. in 2% BSA containing blocking buffer. Refolded HLA-A*02:01/MLA-001 monomers served as standards, covering the range of 15-500 ng/ml. Peptide-MHC monomers of the UV-exchange reaction were diluted 100 fold in blocking buffer. Samples were incubated for 1 h at 37° C., washed four times, incubated with 2 μg/ml HRP conjugated anti-β2m for 1 h at 37° C., washed again and detected with TMB solution that is stopped with […]. Absorption was measured at 450 nm. Candidate peptides that show a high exchange yield (preferably higher than 50%, most preferred higher than 75%) are generally preferred for a generation and production of antibodies or fragments thereof, and/or T cell receptors or fragments thereof, as they show sufficient avidity to the MHC molecules and prevent dissociation of the MHC complexes.
On the technique in general: An ELISA detects its analyte on a solid surface through an enzyme-linked reagent.
Consider SLMEVTHDL (also called SLMEVTHDL) [LARS-001], for which the peptide exchange yield is not below 75%.

As for WLMPVMPAL (also called WLMPVMPAL) [altORF-069], the peptide exchange yield was not below 75%. Then FLQEGDLISV (also called FLQEGDLISV) [altORF-007], with not below 75%. For B1, the peptide exchange yield is 20 to 50%. In the case of ALKELMGPA (also called ALKELMGPA) [altORF-065] it was 20 to 50%. In the case of ILNELLNSI (also called ILNELLNSI) [altORF-064], the peptide exchange yield was not below 75%.

Regarding KLPEGHLPEV (also called KLPEGHLPEV) [AHNAK2-003], the peptide exchange yield was not below 75%. In the case of KLLADAFKV (also called KLLADAFKV) [altORF-066] it was not below 75%; in that of ALMDGSESRFFV (also called ALMDGSESRFFV) [BSG-001], not below 75%; in that of IAISQLTFV (also called IAISQLTFV) [altORF-063], not below 75%. Then LLLQIEPAA (also called LLLQIEPAA) [altORF-068], with not below 75%; and SLGPPPVGV (also called SLGPPPVGV) [CIZ1-001], with not below 75%. In the case of KIIEDLANTV (also called KIIEDLANTV) [KRT18-001] it was not below 75%; in that of GLIDDKGTIKL (also called GLIDDKGTIKL) [CDC2-006], not below 75%. Regarding LLCPVVLQL (also called LLCPVVLQL) [altORF-067], the peptide exchange yield is not below 75%. Consider ALWEEVKATSL (also called ALWEEVKATSL) [altORF-005], for which the peptide exchange yield was not below 75%. Then ILQSLVPAA (also called ILQSLVPAA) [altORF-006], with not below 75%; and B2, with not below 75%.
